Experimental findings from the nanobody polyreactivity screen of Harvey et al. (2022) are described below.

This data set is described as follows: yeast display, Sf9 membrane polyspecificity reagent, FACS + sequencing; frameworks hold sequencing errors. In a few lines: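 Sorting gates, low and high (top ~1%), were placed on anti-HA fluorescence to track expression and on streptavidin fluorescence to track reagent binding. A clone's polyreactivity label is taken from the gate it came out of. The reagent was 10% biotinylated, detergent-solubilized Sf9 membrane, applied for 1 hour at 4 °C to galactose-induced yeast display cells.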
In the case of “QVQLVESGGGLVQAGGSLRLSCAASGITVALNAMGWYRQAPGKERELVAAISWSGDSTYYADSVKGRFTISRDNAKNTVYLQMNSLKPEDTAVYYCNTYPRRFFYSQRYDYWGQGTQVTVSS”, the “polyreactivity (PSR sort gate)” value is on record as “low polyreactivity”.

As for “QVQLVESGGGLVQAGGSLRLSCAASGITVDYYVMGWYRQAPGKERELVASIDSGGRTKYADSVKGRFTISRDNAKNTVYLQMNILKPEDTAVYYCAARSYVFRSRWIRWPKYWGQGTQVTVSS”, the “polyreactivity (PSR sort gate)” value was “high polyreactivity”.

Consider “QVQLVESGGGLVQAGGSLRLSCAASGITVWIYAMGWYRQAPGKERELVAAITGRGGSTYYADSVKGRFTISRDKAKNTLYLQRNSLKPEDTAVYYCAAESWYSTYDYWGQGTQVTVSS”, for which the “polyreactivity (PSR sort gate)” value is “high polyreactivity”. Take “QVQLVESGGGLVQAGGSLRLSCAASGITYGYVMGLYRQAPGKERELVAAISYRGGSTYYADSVKGRFTISRDNAKNTVYLQMNSLKPEDTAVYYCATEASGKTYGYVAYDYWGQGTQVTVSS”: the “polyreactivity (PSR sort gate)” value was “high polyreactivity”. Take “QVQLVESGGGLVQAGGSLRLSCAASGITYTVYAMGWYRQAPGKERELVAVINESGGSTYYADSVKGRFTISRDNAKNTVYLQMNSLKPEDTAVYYCNKTRVYVSSTYDYWGLGTQVTVSS”: the “polyreactivity (PSR sort gate)” value was “low polyreactivity”. In the case of “QVQLVESGGGLVQAGGSLRLSCAASGIYAYVMGWYRPAPGKERELVAAISGTGGRTYYADSVKGRFTISRDNAKNTVYLQMNSLKPEDTAVYYCAARGIYQPKTFDYWGQGTQVTVSS”, the “polyreactivity (PSR sort gate)” value is “high polyreactivity”. For “QVQLVESGGGLVQAGGSLRLSCAASGKTFDPNAMGWYIPAPGKEREFVAAIATIGSSTYYADSVKGRFTMSRDNAKNTVYLPMTCLKPEDSAVYYCAKGIYVVYGIDDYWGQGTQVTVSS”, the “polyreactivity (PSR sort gate)” value is “low polyreactivity”. With “QVQLVESGGGLVQAGGSLRLSCAASGKTFVYYTMGWYRQAPGKERELVAAISYSGGSTYYADSVKGRFTLSRDNAKNTVYLQMNSLKPEDTAVYYCAKQVADRYDYWGQGTQVTVSS”, the “polyreactivity (PSR sort gate)” value is listed as “low polyreactivity”.

As for “QVQLVESGGGLVQAGGSLRLSCAASGLICTPYAMGWYRQSPGKERELVAAISVSGGRTYYADSVKGRFTISRDNAKNTVYLQMNSLKREDTAVYYCAAALPYGYEYWGQGTQVTVSS”, the “polyreactivity (PSR sort gate)” value was “high polyreactivity”. As to “QVQLVESGGGLVQAGGSLRLSCAASGLIFAEYAMGWYRQAPGKERELVARITSAGSTDYADSVKGRFTISRDNAKNTVYLQMNSLKPEDTAVYYCAARYYSQDKNASTASDFDYWGQGTQVTVSS”, the “polyreactivity (PSR sort gate)” value is reported as “low polyreactivity”.

As for “QVQLVESGGGLVQAGGSLRLSCAASGLIFAEYAMGWYRQAPGKERELVARITSGGSTDYADSVKGRFTISRDNAKNTVYLQMNRLKPEDTAVYYCSARYYSQDKNASTASDFDYWGQGTQVTVSS”, the “polyreactivity (PSR sort gate)” value is “low polyreactivity”.

Turning to “QVQLVESGGGLVQAGGSLRLSCAASGLIFAGNDMGWYRQAPGKERELVARITNGGGSTYYADSVKGRFTISRDNAKNTVYLQMNSLKPEDTAVYYCNAGRSSGYSYDSWGPGTQVTVSS”, the “polyreactivity (PSR sort gate)” value was “low polyreactivity”. The entry for “QVQLVESGGGLVQAGGSLRLSCAASGLIFAIYAMGWYRKAPGKERELVAAISSGGGRTYYADSVKGRFTISRDNAKNTVYLQMNSLKPEDTAVYYCNARYRTVRSGGEYWVLMDYWGQGTQVTVSS” is “high polyreactivity”; for “QVQLVESGGGLVQAGGSLRLSCAASGLIFANNAMGWYRQAPGKERELVAVISRGGRTYYADSVKGRFTISRDNAKNTVYLQMNSLKPEDTAVYYCAKPVLVGLGARYVYWGQGTQVTVSS” it is “high polyreactivity”.

For “QVQLVESGGGLVQAGGSLRLSCAASGLIFASYAMGWYRQAPGKERELVAAITSSGGSTYYADSVKGRFTISRDNAKNTVYLQMNSLKPEDTAVYYCAADIYTYNLFYHWSWLDYNYWGQGTQVTVSS”, the “polyreactivity (PSR sort gate)” value is on record as “high polyreactivity”. For “QVQLVESGGGLVQAGGSLRLSCAASGLIFDANAMGWYRLAPVKERELVAAITGSGGRTYSADSVKGRFTISRDTANYTVYCQMNCLKPEATGVYYCAASSKRKVLYNYWGQGTQVTVSS” the value was “high polyreactivity”; for “QVQLVESGGGLVQAGGSLRLSCAASGLIFDPNTMGWYRQAPGKERELVAAISSGGDTNYADSVKGRFTISRDNAKNTVYLQMNSQKPEDTAVYYCATDIRFHDPSEYEGVHFEYWGQGTQVTVSS”, “low polyreactivity”.

As to “QVQLVESGGGLVQAGGSLRLSCAASGLIFEYYAMGWYRQAPGKERELVAVINWSGASTYYADSVKGRFTISRDNAKNTVYLQMNSLKPEDTAVYYCAAGVLITGLRFDYWGQGTQVTVSS”, the “polyreactivity (PSR sort gate)” value is recorded as “low polyreactivity”. For “QVQLVESGGGLVQAGGSLRLSCAASGLIFGINAMGWYRQAPGKERELVASISRSTTRTYYADSVKGRFTISRDNAKNTVYLQMNSLKPEDTAVYYCAARQSPNRWMGYWGQGTQVTVSS” the value was “high polyreactivity”. The entry for “QVQLVESGGGLVQAGGSLRLSCAASGLIFGPNAMGWYRQSPGKERELVAAITKSGDSTYYADSVKGRFTISRDNAKNTVYLQMNSLKPEDTAVYYCAADTTTGLYDYWGQGTQVTVSS” is “low polyreactivity”; for “QVQLVESGGGLVQAGGSLRLSCAASGLIFGPYAVGWYRQAPGKERELVAGISRGGSTYYADSVKGRFTISRDNAKKTVYLQMNSLKPEDTAVYYCAASRRYRGVNRPGDYWGQGTQVTVSS” it is “high polyreactivity”; for “QVQLVESGGGLVQAGGSLRLSCAASGLIFGRNVMGWYRQAPGKERELVAAISWSGGRTYYADSVKGRFTISRDNEKNTVYLQMNSLKPEDTAVYYCAAGYPYYYWTPYYYWGQGTQVTVSS” it is “high polyreactivity”. Consider “QVQLVESGGGLVQAGGSLRLSCAASGLIFGVNAMGWYRQAPGKERELVAVISRGGRTNYADSVKGRFTISRDNAKNTVYLQMNSLKPEDTAVYYCATYYTNKVPARYYWGQGTQVTVSS”, for which the “polyreactivity (PSR sort gate)” value was “high polyreactivity”. On to “QVQLVESGGGLVQAGGSLRLSCAASGLIFGVYAMGWYRQAPGKESELVAAISKNGDRTYYADSVKGRFTISRDNAKNTVYLQMNCLKPEDTAVYYCAAVWARSTYGPYYYWGQGTQVTVSS”, for which the “polyreactivity (PSR sort gate)” value is recorded as “high polyreactivity”. For the sequence “QVQLVESGGGLVQAGGSLRLSCAASGLIFGYNAMGWYRQAPGKERELVAGISSGGSTNYADSVKGRFTISRDNAKNTVYLQMNSLKPEDTAVYYCNADGYLAERFVIRLDEYRDYDYWGQGTQVTVSS”, the “polyreactivity (PSR sort gate)” value is “low polyreactivity”. Regarding “QVQLVESGGGLVQAGGSLRLSCAASGLIFHHNAMGWYRQTPGKERELVAAISRSAGSTYYADSVKGRFTISRDNAKNTVYLQMKSLKPEDTAVYYCAKGPTPTSKYDTVGYGYWGQGTQVTVSS”, the “polyreactivity (PSR sort gate)” value is reported as “low polyreactivity”. “QVQLVESGGGLVQAGGSLRLSCAASGLIFHPYTMGWYRQAPGKERELVAAITSTGGSTYYADSVKGRFTISRDNAKNTVYLQMNSLKPEDTAVYYCATDYGYYDYWGQGTQVTVSS”: the “polyreactivity (PSR sort gate)” value is given as “low polyreactivity”. For the sequence “QVQLVESGGGLVQAGGSLRLSCAASGLIFHSYAMGWYRPAPGKERELVAAISRGGGSTYYADSVKGRFTISRDNAKNTVYLQMNSLKPEDTAVYYCAREYFTRYDYWGQGTQVTVSS”, the “polyreactivity (PSR sort gate)” value is listed as “high polyreactivity”.

For “QVQLVESGGGLVQAGGSLRLSCAASGLIFHTYAMGWYRQAPGKERELVAAIRGGGSTNYADSVKGRFTISRDNAKNTVYLQMKSLKPEDTAVYYCNATWNLFPGVLDRYDYWGQGTQVTVSS”, the “polyreactivity (PSR sort gate)” value was “low polyreactivity”. The entry for “QVQLVESGGGLVQAGGSLRLSCAASGLIFIAYAMRWYRQAPGKERELVAAISSSGGSTYYADSVKGRFTISRDNAKNTVYLQMNSLKPEDTAVYYCAADRYAWGTGRYGYWGQGTQVTVSS” is “low polyreactivity”; for “QVQLVESGGGLVQAGGSLRLSCAASGLIFIKYTMGWYRQAPGKERELVAVISGSGGSTYYADSVKGRFTISRDNAKNTVYLQMNSLKPEDTAVYYCAARSYALGYGGGYWGQGTQVTVSS” it is “high polyreactivity”; for “QVQLVESGGGLVQAGGSLRLSCAASGLIFISYAMGWYRQAPGKERELVAAITSTVGGTYYADSVKGRFTISRDNAKNTVYLQMNSLKPEDTAVYYCAAEISYRWWYNLGFTSFVYWGQGTLVTVSS” it is “low polyreactivity”.

“QVQLVESGGGLVQAGGSLRLSCAASGLIFIYNTMGWSRQAPGKERELVAAISGRGGSTYYADSVKGRFTISRDNAKNTVYLQMNSLKPEDTAVYYCAAQDTYHSYGLYSWGQGTQVTVSS”: the “polyreactivity (PSR sort gate)” value is given as “low polyreactivity”.

As to “QVQLVESGGGLVQAGGSLRLSCAASGLIFKLYAMGWYRQAPGKERELVAAITDRGGSTYYADSVKGRFTISRDNAKNTVYLQMNSLKPEDTAVYYCAAPYAGWRDGGDYWGQGTQVTVSS”, the “polyreactivity (PSR sort gate)” value is “low polyreactivity”. In the case of “QVQLVESGGGLVQAGGSLRLSCAASGLIFKRNAMGWYRQAPGKERELVATISGSGGSTYYADSVKGRFTISRDNAKNTFYLQMNSLKPEDTAVYYCAAEASSVSYPYEYEYWGQGTQVTVSS”, the “polyreactivity (PSR sort gate)” value is reported as “high polyreactivity”. Turning to “QVQLVESGGGLVQAGGSLRLSCAASGLIFKSYAMGWYRQAPGKERELVAAISSGGTTYYADSVKGRFTISRDNAKNTVYLQMNSLKPEDTAVYYCAAYFKQPVEPCEYWGQGTQVTVSS”, the “polyreactivity (PSR sort gate)” value is listed as “high polyreactivity”.

For the sequence “QVQLVESGGGLVQAGGSLRLSCAASGLIFKTYTMGWYRQAPGKEREFVAAITTSGGSTYYADSVKGRFTISRDNAKNTVYLQMNSLKPEDTAVYYCAAVWWKSFQGSSYRMNYWGQGTQVTVSS”, the “polyreactivity (PSR sort gate)” value is reported as “high polyreactivity”. With “QVQLVESGGGLVQAGGSLRLSCAASGLIFLDYAMGWYRQAPGKERELVAAISRSGGRTYYADSVKGRFTISRDNAKNTVYLQMNSLKPEDTAVYYCAADGSRKSEIYDYWGQGTQVTVSS”, the “polyreactivity (PSR sort gate)” value was “high polyreactivity”. For “QVQLVESGGGLVQAGGSLRLSCAASGLIFLTYARGWYRQAPGKERELVATISGSTGGTYYADSVKGRFTISRDNAKNTVYLQMNSLKPEDTAVYYCNASVFQSEYDYWGQGTQVTVSS”, the “polyreactivity (PSR sort gate)” value is listed as “low polyreactivity”. The entry for “QVQLVESGGGLVQAGGSLRLSCAASGLIFLYAMGWYRQAPGKERELVAAISNGGSTYYADSVKGRFTISRDNAKNTVYLQMYSLKPEDTAVYYCAVYYPGKYGYWGQGTQVTVSS” is “high polyreactivity”. For “QVQLVESGGGLVQAGGSLRLSCAASGLIFLYYAMGWNRQAPGKERELVAAIRTNYADSVKGRFTISRDNAKNTVYLQMNSLKPEDTPVYYCAAESCQTPTSAFDYWGQGTQVTVSS”, the “polyreactivity (PSR sort gate)” value was “low polyreactivity”.
